# Article PMC3665706 (Immunity, 2013)
# B1: N-terminal A20 protein bearing the OTU domain (residues 1-370), wild type (domain or fragment, UniProt P21580 1-370, looked up)
# chain: MAEQVLPQALYLSNMRKAVKIRERTPEDIFKPTNGIIHHFKTMHRYTLEMFRTCQFCPQFREIIHKALIDRNIQATLESQKKLNWCREVRKLVALKTNGDGNCLMHATSQYMWGVQDTDLVLRKALFSTLKETDTRNFKFRWQLESLKSQEFVETGLCYDTRNWNDEWDNLIKMASTDTPMARSGLQYNSLEEIHIFVLCNILRRPIIVISDKMLRSLESGSNFAPLKVGGIYLPLHWPAQECYRYPIVLGYDSHHFVPLVTLKDSGPEIRAVPLVNRDRGRFEDLKVHFLTDPENEMKEKLLKEYLMVIEIPVQGWDHGTTHLINAAKLDEANLPKEINLVDDYFELVQHEYKKWQENSEQGRREGHAQ
# Target: the molecule itself
# Test: SEC-MALS
protein,measurement,value
B1,stoichiometry N,2
